Test results as given in IntAct's records for PubMed 24389026.

B1: Ubiquitin-conjugating enzyme E2 T (Homo sapiens), Q9NPD8 (parent)
chain: MQRASRLKRELHMLATEPPPGITCWQDKDQMDDLRAQILGGANTPYEKGVFKLEVIIPERYPFEPPQIRFLTPIYHPNIDSAGRICLDVLKLPPKGAWRPSLNIATVLTSIQLLMSEPNPDDPLMADISSEFKYNKPAFLKNARQWTEKHARQKQKADEEEMLDNLPEAGDSRVHNSTQKRKASQLVGIEKKFHPDV
partner: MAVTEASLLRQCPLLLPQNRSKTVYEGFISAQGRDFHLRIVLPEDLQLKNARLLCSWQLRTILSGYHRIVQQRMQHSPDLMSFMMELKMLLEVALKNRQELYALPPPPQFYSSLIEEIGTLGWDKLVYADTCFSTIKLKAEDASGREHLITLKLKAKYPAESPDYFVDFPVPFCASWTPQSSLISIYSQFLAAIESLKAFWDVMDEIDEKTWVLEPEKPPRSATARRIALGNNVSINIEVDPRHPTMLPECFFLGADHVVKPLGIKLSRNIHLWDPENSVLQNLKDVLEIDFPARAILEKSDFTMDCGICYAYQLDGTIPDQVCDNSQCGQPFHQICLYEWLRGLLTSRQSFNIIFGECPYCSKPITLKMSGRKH
B2: E3 ubiquitin-protein ligase FANCL (Homo sapiens), Q9NW38-1 (parent)
chain: B1 partner

Variants of: B1
Conditions: with FANCL

| Variant | effect of a mutation on the interaction |
| --- | --- |
| R60E | disrupting interaction strength |

Variants of: B2
Conditions: with ube2t_human UBE2T

| Variant | effect of a mutation on the interaction |
| --- | --- |
| I309A | disrupting interaction strength |
| W341A | disrupting interaction strength |
| Y311A | disrupting interaction strength |
